Results as given in article PMC9638904, “Structure and mechanism of the type I-G CRISPR effector” (Nucleic Acids Research, 2022).

Columns and labels:
[1] = target: T1, Csb2 N-terminal (Cas5-like) domain (Thioalkalivibrio sulfidiphilus HL-EbGr7, UniProt B8GLG2 1-259); assay: fluorescence anisotropy; Anisotropy: 25 nM RNA, 50 mM NaCl, 1 mM DTT, 5 mM MgCl2, 1 mM EDTA, 0.1 U/ul RNase inhibitor, 37 C; EMSA/plasmid: 20 mM Tris-HCl, 50 mM NaCl, 1 mM DTT, 0.1 mg/ml BSA, 5 mM MgCl2, 1 mM EDTA, 37 C (30 min EMSA, 1 h plasmid); details: protein: recombinant, tags: N-terminal His8-TEV, removed
T1 sequence: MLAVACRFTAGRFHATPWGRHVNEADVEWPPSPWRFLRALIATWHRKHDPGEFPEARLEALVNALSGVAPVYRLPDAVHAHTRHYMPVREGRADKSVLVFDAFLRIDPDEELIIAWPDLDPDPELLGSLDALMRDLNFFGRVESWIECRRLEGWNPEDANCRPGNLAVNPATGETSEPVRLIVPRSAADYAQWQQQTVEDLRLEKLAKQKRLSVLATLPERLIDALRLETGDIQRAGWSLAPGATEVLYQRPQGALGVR

[2] = target: T2, Csb2 (Thioalkalivibrio sulfidiphilus HL-EbGr7, UniProt B8GLG2 1-516); assay: fluorescence anisotropy; 5 mM MgCl2, 1 mM EDTA; Anisotropy: 25 nM RNA, 50 mM NaCl, 1 mM DTT, 5 mM MgCl2, 1 mM EDTA, 0.1 U/ul RNase inhibitor, 37 C; EMSA/plasmid: 20 mM Tris-HCl, 50 mM NaCl, 1 mM DTT, 0.1 mg/ml BSA, 5 mM MgCl2, 1 mM EDTA, 37 C (30 min EMSA, 1 h plasmid); details: protein: recombinant; tags: cloning described in pET-Duet and pEV5HisTEV; His8-TEV tag removed; label: 5'-6-FAM; hairpin
T2 sequence: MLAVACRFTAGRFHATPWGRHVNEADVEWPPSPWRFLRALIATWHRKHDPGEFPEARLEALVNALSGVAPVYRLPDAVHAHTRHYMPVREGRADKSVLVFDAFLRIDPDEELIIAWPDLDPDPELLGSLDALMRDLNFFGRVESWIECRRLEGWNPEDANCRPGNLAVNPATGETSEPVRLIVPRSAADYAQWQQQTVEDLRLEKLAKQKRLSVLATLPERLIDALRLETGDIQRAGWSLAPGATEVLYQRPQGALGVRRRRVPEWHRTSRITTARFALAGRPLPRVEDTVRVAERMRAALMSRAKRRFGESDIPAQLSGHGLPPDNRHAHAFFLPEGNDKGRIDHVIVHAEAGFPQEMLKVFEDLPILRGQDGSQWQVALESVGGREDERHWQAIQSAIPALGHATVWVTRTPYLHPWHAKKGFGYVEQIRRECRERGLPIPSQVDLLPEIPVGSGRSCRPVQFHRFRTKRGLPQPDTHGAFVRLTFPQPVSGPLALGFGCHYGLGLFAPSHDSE

[3] = target: T2, Csb2; assay: fluorescence anisotropy; no appreciable binding; Anisotropy: 25 nM RNA, 50 mM NaCl, 1 mM DTT, 5 mM MgCl2, 1 mM EDTA, 0.1 U/ul RNase inhibitor, 37 C; EMSA/plasmid: 20 mM Tris-HCl, 50 mM NaCl, 1 mM DTT, 0.1 mg/ml BSA, 5 mM MgCl2, 1 mM EDTA, 37 C (30 min EMSA, 1 h plasmid); details: protein: recombinant; tags: cloning described in pET-Duet and pEV5HisTEV; His8-TEV tag removed
[4] = target: the molecule itself; assay: cryo-EM structure; SEC-purified complex of Cas7, Cas8g, Csb2 and 72 nt crRNA, 1 mg/ml; Titan Krios 300 kV; multibody refinement for Cas8g (~8 Å)
[5] = target: Csb2;Cas7;Cas8g;Cas3 (Thioalkalivibrio sulfidiphilus …, UniProt B8GLG2;B8GLG3;B8GLG4;B8GLG5 1-516;1-316;1-720;1-828, |||); assay: EMSA; 0.8 uM effector; near-complete shift; Anisotropy: 25 nM RNA, 50 mM NaCl, 1 mM DTT, 5 mM MgCl2, 1 mM EDTA, 0.1 U/ul RNase inhibitor, 37 C; EMSA/plasmid: 20 mM Tris-HCl, 50 mM NaCl, 1 mM DTT, 0.1 mg/ml BSA, 5 mM MgCl2, 1 mM EDTA, 37 C (30 min EMSA, 1 h plasmid); details: protein: recombinant;recombinant;recombinant;recombinant; tags: cloning described in pET-Duet and pEV5HisTEV; copies: 1;7;1;1; label: 32P 5' end on DNA; crRNA / target strand / non-target strand; target strand as printed has 1 nt 5' overhang
[6] = target: T3, Csb2;Cas7 (Thioalkalivibrio sulfidiphilus …, UniProt B8GLG2;B8GLG3 1-516;1-316, |); assay: EMSA; 0.8 uM effector; no Cas8g, no Cas3; no apparent shift; Anisotropy: 25 nM RNA, 50 mM NaCl, 1 mM DTT, 5 mM MgCl2, 1 mM EDTA, 0.1 U/ul RNase inhibitor, 37 C; EMSA/plasmid: 20 mM Tris-HCl, 50 mM NaCl, 1 mM DTT, 0.1 mg/ml BSA, 5 mM MgCl2, 1 mM EDTA, 37 C (30 min EMSA, 1 h plasmid); details: protein: recombinant;recombinant, tags: cloning described in pET-Duet and pEV5HisTEV, His8-TEV tag removed;N-terminal His8-TEV, copies: 1;7, label: 32P 5' end on DNA, crRNA / target strand / non-target strand, target strand as printed has 1 nt 5' overhang
T3 sequence 1: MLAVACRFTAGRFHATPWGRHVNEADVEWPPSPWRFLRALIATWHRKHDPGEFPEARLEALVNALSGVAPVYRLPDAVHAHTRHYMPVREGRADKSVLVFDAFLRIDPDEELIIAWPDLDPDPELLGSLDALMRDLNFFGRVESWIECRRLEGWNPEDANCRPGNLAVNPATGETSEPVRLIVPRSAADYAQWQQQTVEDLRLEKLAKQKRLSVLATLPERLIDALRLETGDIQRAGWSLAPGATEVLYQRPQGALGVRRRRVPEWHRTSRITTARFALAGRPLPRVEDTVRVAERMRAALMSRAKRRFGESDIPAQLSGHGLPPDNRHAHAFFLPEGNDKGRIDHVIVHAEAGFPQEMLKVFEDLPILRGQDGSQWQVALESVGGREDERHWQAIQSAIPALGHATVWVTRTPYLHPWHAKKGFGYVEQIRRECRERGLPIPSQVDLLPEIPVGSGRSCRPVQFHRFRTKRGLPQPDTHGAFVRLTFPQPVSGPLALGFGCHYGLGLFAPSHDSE
T3 sequence 2: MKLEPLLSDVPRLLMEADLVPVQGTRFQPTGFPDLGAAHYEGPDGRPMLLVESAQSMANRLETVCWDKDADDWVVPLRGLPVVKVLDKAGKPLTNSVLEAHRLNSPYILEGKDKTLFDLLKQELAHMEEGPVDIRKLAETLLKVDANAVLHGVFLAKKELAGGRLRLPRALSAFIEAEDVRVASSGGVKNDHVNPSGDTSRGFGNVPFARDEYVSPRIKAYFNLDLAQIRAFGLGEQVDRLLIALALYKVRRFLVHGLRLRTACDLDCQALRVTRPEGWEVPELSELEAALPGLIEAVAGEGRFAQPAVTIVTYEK

[7] = target: T4, Cas3 (Thioalkalivibrio sulfidiphilus HL-EbGr7, UniProt B8GLG5 1-828); assay: EMSA; Cas3 alone; TS- or NTS-labelled; Anisotropy: 25 nM RNA, 50 mM NaCl, 1 mM DTT, 5 mM MgCl2, 1 mM EDTA, 0.1 U/ul RNase inhibitor, 37 C; EMSA/plasmid: 20 mM Tris-HCl, 50 mM NaCl, 1 mM DTT, 0.1 mg/ml BSA, 5 mM MgCl2, 1 mM EDTA, 37 C (30 min EMSA, 1 h plasmid); details: protein: recombinant; tags: N-terminal His8-TEV, removed; label: 32P on TS or NTS (EMSA); 1 nt 5' overhang on strand 1 as printed
T4 sequence: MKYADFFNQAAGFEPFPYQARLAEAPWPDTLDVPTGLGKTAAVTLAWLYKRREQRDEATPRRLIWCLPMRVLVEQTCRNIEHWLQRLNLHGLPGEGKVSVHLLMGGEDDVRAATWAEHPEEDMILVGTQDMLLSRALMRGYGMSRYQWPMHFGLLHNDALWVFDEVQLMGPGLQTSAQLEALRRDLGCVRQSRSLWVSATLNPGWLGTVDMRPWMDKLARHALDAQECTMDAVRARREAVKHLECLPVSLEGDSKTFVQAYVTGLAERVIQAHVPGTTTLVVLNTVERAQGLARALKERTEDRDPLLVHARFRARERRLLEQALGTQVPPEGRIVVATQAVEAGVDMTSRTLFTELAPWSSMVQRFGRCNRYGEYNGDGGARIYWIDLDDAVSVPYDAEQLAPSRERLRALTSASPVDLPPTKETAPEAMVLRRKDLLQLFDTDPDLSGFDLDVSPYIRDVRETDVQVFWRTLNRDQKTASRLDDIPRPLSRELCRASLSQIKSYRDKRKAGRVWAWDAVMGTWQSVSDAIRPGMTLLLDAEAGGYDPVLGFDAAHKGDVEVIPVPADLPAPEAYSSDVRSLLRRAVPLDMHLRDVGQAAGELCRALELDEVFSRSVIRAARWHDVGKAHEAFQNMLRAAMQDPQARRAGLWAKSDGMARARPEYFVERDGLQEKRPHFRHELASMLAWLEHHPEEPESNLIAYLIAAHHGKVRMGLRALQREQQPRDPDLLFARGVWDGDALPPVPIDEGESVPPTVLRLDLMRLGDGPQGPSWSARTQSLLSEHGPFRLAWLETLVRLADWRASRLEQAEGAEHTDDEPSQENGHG

Question: Does GUCAUCCGCGGCAUUUAGCCGCGGCCUCAUUGAAGC (structured_RNA) [CRISPR repeat RNA (36 nt)] bind ([1]; label: 5'-6-FAM, hairpin)?
Answer: no binding

Question: What about the Kd [2] of the same binder?
Answer: 55 nM

Question: Does AUUGAAGC (ssRNA) [8 nt 5' handle RNA] bind [1]?
Answer: no binding

Question: Does AUUGAAGC (ssRNA) [8 nt 5' handle RNA] bind [3]?
Answer: no binding

B1: Cas7 (type I-G CRISPR effector subunit, Thioalkalivibrio sulfidiphilus HL-EbGr7) (natural protein, UniProt B8GLG3 1-316, looked up)
chain: MKLEPLLSDVPRLLMEADLVPVQGTRFQPTGFPDLGAAHYEGPDGRPMLLVESAQSMANRLETVCWDKDADDWVVPLRGLPVVKVLDKAGKPLTNSVLEAHRLNSPYILEGKDKTLFDLLKQELAHMEEGPVDIRKLAETLLKVDANAVLHGVFLAKKELAGGRLRLPRALSAFIEAEDVRVASSGGVKNDHVNPSGDTSRGFGNVPFARDEYVSPRIKAYFNLDLAQIRAFGLGEQVDRLLIALALYKVRRFLVHGLRLRTACDLDCQALRVTRPEGWEVPELSELEAALPGLIEAVAGEGRFAQPAVTIVTYEK
notes: synthetic gene, codon-optimised for E. coli; Seven copies stand on the crRNA in the Cascade complex; also called Cas7.1 to Cas7.7 (the seven copies in the complex); source: E. coli C43(DE3), purified (HisTrap, TEV cleavage, gel filtration); not shown: His8, N-terminal, cleaved
Question: With B1 as the binder, how does the “stoichiometry N” value [4] read?
Answer: 7

Question: Does GUCAUCCGCGGCAUUUAGCCGCGGCCUC (structured_RNA) [3' hairpin RNA (28 nt)] bind ([1]; label: 5'-6-FAM, hairpin)?
Answer: no binding

Question: What about the Kd [2] of the same binder?
Answer: 43 nM

B2: Tet crRNA with 80 bp target dsDNA (mixed)
RNA: AUUGAAGCAAGCUGUCCCUGAUGGUCGUCAUCUACCUGCCUGGAGUCAUCCGCGGCAUUUAGCCGCGGCCUC
DNA 1: GCCCGCGTTGCAGGCCATGCTGTCCAGGCAGGTAGATGACGACCATCAGGGACAGCTTCAAGGATCGCTCGCGGCTCTTAC
DNA 2: GTAAGAGCCGCGAGCGATCCTTGAAGCTGTCCCTGATGGTCGTCATCTACCTGCCTGGACAGCATGGCCTGCAACGCGGG
Question: Which results are given for B2?
Answer: binding result [5]: binds; binding result [6]: no binding

B3: 80 bp target dsDNA (no crRNA) (dsDNA)
DNA 1: GCCCGCGTTGCAGGCCATGCTGTCCAGGCAGGTAGATGACGACCATCAGGGACAGCTTCAAGGATCGCTCGCGGCTCTTAC
DNA 2: GTAAGAGCCGCGAGCGATCCTTGAAGCTGTCCCTGATGGTCGTCATCTACCTGCCTGGACAGCATGGCCTGCAACGCGGG
Question: Does B3 bind [7]?
Answer: no binding
